The target in data set [1] is human protein disulfide isomerase, P07237.
The target in data set [2] is T1, chicken protein disulfide isomerase, P09102.
T1 chain: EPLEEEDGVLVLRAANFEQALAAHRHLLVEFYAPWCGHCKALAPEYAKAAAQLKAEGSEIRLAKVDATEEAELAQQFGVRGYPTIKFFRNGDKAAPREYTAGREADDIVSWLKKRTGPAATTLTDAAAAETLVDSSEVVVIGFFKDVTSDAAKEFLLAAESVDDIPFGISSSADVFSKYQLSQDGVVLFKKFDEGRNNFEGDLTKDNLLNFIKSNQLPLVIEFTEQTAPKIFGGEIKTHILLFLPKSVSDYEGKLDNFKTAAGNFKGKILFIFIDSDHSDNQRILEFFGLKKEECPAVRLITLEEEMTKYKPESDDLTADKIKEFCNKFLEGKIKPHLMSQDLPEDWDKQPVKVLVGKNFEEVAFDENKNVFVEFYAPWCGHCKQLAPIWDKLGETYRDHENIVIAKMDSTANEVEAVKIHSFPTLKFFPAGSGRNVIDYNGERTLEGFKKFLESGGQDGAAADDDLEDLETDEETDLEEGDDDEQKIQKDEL

Where only a bound is given, the exact number is not on record here.

Sequence of human protein disulfide isomerase, P07237 (P07237 18-508): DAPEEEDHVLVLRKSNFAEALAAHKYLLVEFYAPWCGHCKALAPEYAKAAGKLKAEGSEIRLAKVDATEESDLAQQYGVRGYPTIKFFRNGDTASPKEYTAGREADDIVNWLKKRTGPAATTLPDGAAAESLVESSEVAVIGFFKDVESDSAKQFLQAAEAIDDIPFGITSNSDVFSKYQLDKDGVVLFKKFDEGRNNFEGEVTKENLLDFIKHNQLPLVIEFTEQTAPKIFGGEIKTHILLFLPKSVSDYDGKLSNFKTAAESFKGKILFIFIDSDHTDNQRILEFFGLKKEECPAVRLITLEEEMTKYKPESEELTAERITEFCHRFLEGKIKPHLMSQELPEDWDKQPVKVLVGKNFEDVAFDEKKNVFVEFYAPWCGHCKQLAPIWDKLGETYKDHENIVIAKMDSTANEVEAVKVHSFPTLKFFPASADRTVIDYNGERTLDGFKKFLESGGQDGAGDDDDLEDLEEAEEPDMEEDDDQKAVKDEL

B1: human prolyl 4-hydroxylase subunit (protein)
chain: HPGFFTSIGQMTDLIHTEKDLVTSLKDYIKAEEDKLEQIKKWAEKLDRLTSTATKDPEGFVGHPVNAFKLMKRLNTEWSELENLVLKDMSDGFISNLTIQRQYFPNDEDQVGAAKALLRLQDTYNLDTDTISKGNLPGVKHKSFLTAEDCFELGKVAYTEADYYHTELWMEQALRQLDEGEISTIDKVSVLDYLSYAVYQQGDLDKALLLTKKLLELDPEHQRANGNLKYFEYIMAKEKDVNKSASDDQSDQKTTPKKKGVAVDYLPERQKYEMLCRGEGIKMTPRRQKKLFCRYHDGNRNPKFILAPAKQEDEWDKPRIIRFHDIISDAEIEIVKDLAKPRLRRATISNPITGDLETVHYRISKSAWLSGYENPVVSRINMRIQDLTGLDVSTAEELQVANYGVGGQYEPHFDFARKDEPDAFKELGTGNRIATWLFYMSDVSAGGATVFPEVGASVWPKKGTAVFWYNLFASGEGDYSTRHAACPVLVGNKWVSNKWLHERGQEFRRPCTLSELE
With B1, the production of hydroxylated, heterotrimeric type 1 procollagen in yeast (plasmid Gp5565, hPDI/hP4-H) in data set [1] was less than 3 times lower. In data set [2], the “production of hydroxylated, heterotrimeric type 1 procollagen in yeast (plasmid Gp5511, cPDI/hP4-H)” value is “Plasmid Gp5511 (cPDI/hP4-H) generated the first hydroxylated type 1 (α1α2) procollagen expressed in yeast”.

B2: chicken prolyl 4-hydroxylase subunit (protein)
chain: HTDFFTSIGHMTDLINTEKDLVISKLKDYIKAEESKLEQIKKWAEKLDKLTDTATKDPEGFLGHPANAFKLMKRLNTEWGELESLVLKDMSDGFISNMTIQRQFFPNDEDQTGARKALLRLQDTYNLDTDTLSRGNLPGVKHKSFLTAEDCFELGKIRYTEADYYHTELWMEQALKQLDEGEVSSADKVYILDYLSYAVYQQGDLSKAMMLTKRLLELDPEHQRANGNMKYFEYIMAKEKEANKSSTDAEDQTDKETEVKKKDYLPERRKYEMLCRGEGLKMTPRRQKRLFCRYYDGNRNPRYILGPVKQEDEWDKPRIVRFLDIISDEEIETVKELAKPRLSRATVHDPETGKLTTAHYRVSKSAWLSGYESPVVSRINTRIQDLTGLDVSTAEELQVANYGVGGQYEPHFDFGRKDEPDAFKELGTGNRIATWLFYMSDVSAGGATVFPEVGASVWPKKGTAVFWYNLFPSGEGDYSTRHAACPVLVGNKWVSNKWLHERGQEFRRPCTLSELE
For B2, the “production of hydroxylated, heterotrimeric type 1 procollagen in yeast (plasmid Gp5563, cPDI/cP4-H)” value in data set [2] is given as “produce levels of hydroxylated heterotrimeric procollagen equal to that found with plasmid Gp5511”.

These data come from patent publication US6472171.
